Measured values from patent publication US20050042213A1 (INSIGHT BIOPHARMACEUTICALS, published 2005).

T1: active heparanase (H53), heterodimer of the 8 kDa and 45 kDa subunits (human, UniProt Q9Y251 36-109; Q9Y251 158-543)
T1 sequence 1: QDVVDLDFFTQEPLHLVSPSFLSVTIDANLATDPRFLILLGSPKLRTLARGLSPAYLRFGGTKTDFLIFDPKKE
T1 sequence 2: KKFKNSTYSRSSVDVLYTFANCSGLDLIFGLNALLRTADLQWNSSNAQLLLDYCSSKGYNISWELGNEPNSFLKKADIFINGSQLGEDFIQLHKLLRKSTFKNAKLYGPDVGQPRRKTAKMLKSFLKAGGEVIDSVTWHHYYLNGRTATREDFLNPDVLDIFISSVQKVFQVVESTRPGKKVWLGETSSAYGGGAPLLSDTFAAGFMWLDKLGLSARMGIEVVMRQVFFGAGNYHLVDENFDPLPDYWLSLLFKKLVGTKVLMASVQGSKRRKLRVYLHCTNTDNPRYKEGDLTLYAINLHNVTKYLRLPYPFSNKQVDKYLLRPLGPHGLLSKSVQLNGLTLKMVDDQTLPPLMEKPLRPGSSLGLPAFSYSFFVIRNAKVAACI

T2: pro-heparanase (H60), purified recombinant human 60 kDa latent heparanase (human, UniProt Q9Y251 36-543)
T2 sequence: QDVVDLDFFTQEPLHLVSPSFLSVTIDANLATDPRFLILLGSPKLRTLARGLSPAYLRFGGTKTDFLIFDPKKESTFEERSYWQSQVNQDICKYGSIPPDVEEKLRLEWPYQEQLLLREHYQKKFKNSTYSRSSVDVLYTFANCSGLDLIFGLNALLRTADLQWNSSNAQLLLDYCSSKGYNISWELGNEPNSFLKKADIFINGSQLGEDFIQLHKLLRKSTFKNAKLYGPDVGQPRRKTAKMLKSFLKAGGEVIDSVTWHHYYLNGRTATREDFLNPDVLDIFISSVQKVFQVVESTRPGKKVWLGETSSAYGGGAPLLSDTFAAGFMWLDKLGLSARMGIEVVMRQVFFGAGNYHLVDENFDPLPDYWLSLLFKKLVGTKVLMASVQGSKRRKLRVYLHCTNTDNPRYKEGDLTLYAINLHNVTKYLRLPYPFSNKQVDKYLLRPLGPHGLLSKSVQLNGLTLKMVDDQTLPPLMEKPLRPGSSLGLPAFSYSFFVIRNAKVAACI


Assays:
Test in all cases: cell-based or functional assay
[1] = biological target: T1, active heparanase (H53), heterodimer of …
[2] = biological target: T2, pro-heparanase (H60), purified …
[3] = biological target: T1, active heparanase (H53), heterodimer of …; remark: listed apart in the source

IC50 H53 [1] [µM]	IC50 H60 (µM), H60 activation in the cell-based assay [2] [µM]	IC50 Heparanase [3] [µM]	Binder
1.4	65		PRFLILL [P8-11]
8			FLILLGSPKLRTL [P8-8]
5			RFLILL [P8-18]
2.3			PRFLILLGSPKLR [P8-4]
		21	CTWHHYYLNGRTATR [Pep-25]
6			DPRFLILL [P8-16]
7			CPAYLRFGGTKTDFLIFDPLLE [Pep-7]
18			LRTLARGLSPAYL [P8-5]
